Measurements reported in article PMC7203701 (ACS Omega, 2020).

How the values were obtained:
[1] = target: T1, DmoB (Arthrobacter globiformis, UniProt H0QJX4); test: fluorescence quenching titration of FMN with DmoB; assay type: binding
T1 sequence (H0QJX4 1-171): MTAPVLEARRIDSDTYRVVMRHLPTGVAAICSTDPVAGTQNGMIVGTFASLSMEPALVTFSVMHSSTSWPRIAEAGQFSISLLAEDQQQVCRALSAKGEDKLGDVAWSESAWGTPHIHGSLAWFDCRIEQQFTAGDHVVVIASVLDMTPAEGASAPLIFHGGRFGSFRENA

[2] = substrate: Cc1cc2nc3c(=O)[nH]c(=O)nc-3n(C[C@H](O)[C@H](O)[C@H](O)CO)c2cc1C; test: purified protein; details: 50 μM NADH, 20 mM PIPES, pH 7.4, 25 °C
[3] = substrate: Cc1cc2nc3c(=O)[nH]c(=O)nc-3n(C[C@H](O)[C@H](O)[C@H](O)COP(=O)(O)OP(=O)(O)OC[C@H]3O[C@@H](n4cnc5c(N)ncnc54)[C@H](O)[C@@H]3O)c2cc1C; test: purified protein; details: 50 μM NADH, 20 mM PIPES, pH 7.4, 25 °C
[4] = substrate: Cc1cc2nc3c(=O)[nH]c(=O)nc-3n(C[C@H](O)[C@H](O)[C@H](O)COP(=O)(O)O)c2cc1C; test: purified protein; details: 50 μM NADH, 20 mM PIPES, pH 7.4, 25 °C
[5] = substrate: NC(=O)C1=CN([C@@H]2O[C@H](COP(=O)(O)OP(=O)(O)OC[C@H]3O[C@@H](n4cnc5c(N)ncnc54)[C@H](O)[C@@H]3O)[C@@H](O)[C@H]2O)C=CC1; test: purified protein; details: 50 μM FMN, 20 mM PIPES, pH 7.4, 25 °C

Kd [1] [nM]	Molecule	Km [2] [µM]	Vmax [2] [µmol/min/mg]	kcat/Km [2] [M⁻¹ s⁻¹]	Km [3] [µM]	Vmax [3] [µmol/min/mg]	kcat/Km [3] [M⁻¹ s⁻¹]	Km [4] [µM]	Vmax [4] [µmol/min/mg]	kcat/Km [4] [M⁻¹ s⁻¹]	Km [5] [µM]	Vmax [5] [µmol/min/mg]	kcat/Km [5] [M⁻¹ s⁻¹]
1110 ± 710	Cc1cc2nc3c(=O)[nH]c(=O)nc-3n(C[C@H](O)[C@H](O)[C@H](O)COP(=O)(O)O)c2cc1C [FMN]												
	DmoB (Arthrobacter globiformis NBRC 12137) (protein) MTAPVLEARRIDSDTYRVVMRHLPTGVAAICSTDPVAGTQNGMIVGTFASLSMEPALVTFSVMHSSTSWPRIAEAGQFSISLLAEDQQQVCRALSAKGEDKLGDVAWSESAWGTPHIHGSLAWFDCRIEQQFTAGDHVVVIASVLDMTPAEGASAPLIFHGGRFGSFRENA	142 ± 7	130	283000	84 ± 12	153	583000	18 ± 5	207	3.72e+06	2.3 ± 0.5	149	2.09e+07
